Laboratory results published in US20240309093A1 (MINGHUI PHARMACEUTICAL HANGZHOU, published 2024).

T1: recombinant mouse PD-1-his protein (mouse, UniProt Q02242 25-167, limits assumed)
T1 construct: not shown: his tag
T1 sequence (looked up): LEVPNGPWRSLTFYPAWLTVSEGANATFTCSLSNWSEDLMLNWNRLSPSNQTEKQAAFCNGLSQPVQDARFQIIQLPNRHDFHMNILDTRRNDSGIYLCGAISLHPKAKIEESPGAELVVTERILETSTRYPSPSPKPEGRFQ


How the values were obtained:
[1] = target: T1, recombinant mouse PD-1-his protein; assay: ELISA; PD-1-his coated 2 µg/mL, anti-human IgG-HRP
Procedure: Ninety-six-well Greiner plates were coated with 2 μg/mL of recombinant human PD-1-his protein, recombinant monkey PD-1-his protein and recombinant mouse PD-1-his protein at 4° C. overnight. The next day, the plates were blocked with 1% casein. […] Then, the plates were washed with PBST. Anti-human IgG-HRP (diluted in 1% casein at 1:5000) was added and incubated for 1 hr., and binding detection was performed.

[2] = target: T2, recombinant human PD-1-his protein (human, UniProt Q15116 25-167); assay: SPR (Biacore 8K); PD-1-his amine-coupled to CM5, 1:1 Langmuir fit
T2 construct: also called hPD-1-his; not shown: his tag
T2 sequence (Q15116 25-167 limits assumed): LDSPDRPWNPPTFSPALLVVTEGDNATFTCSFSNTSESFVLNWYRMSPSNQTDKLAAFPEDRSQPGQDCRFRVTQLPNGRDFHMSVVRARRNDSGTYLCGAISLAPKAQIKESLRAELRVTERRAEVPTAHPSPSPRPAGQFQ
Procedure: About 250RU of recombinant human PD-1-his protein was coupled to a CM5 chip at 25° C. using an amine coupling kit (GE Healthcare, Cat No. BR100050) according to standard amine coupling procedure. […] (five concentrations were detected). The binding time was 120 s, and the dissociation time was 600 s. The curve was fitted with 1:1 Langmuir binding model using Biacore®8K analysis software (BIAevaluation) to determine the kinetic constants thereof, such as, association rate constant, dissociation rate constant, equilibrium dissociation constant, etc.

[3] = target: T3, human PD-1 on HEK293 cells overexpressing human PD-1 (human, UniProt Q15116 25-288); assay: flow cytometry on HEK293 cells overexpressing human PD-1; PE-anti-human IgG
T3 construct: whole, on cells; also called HEK293/hPD1; hPD-1
T3 sequence (Q15116 25-288): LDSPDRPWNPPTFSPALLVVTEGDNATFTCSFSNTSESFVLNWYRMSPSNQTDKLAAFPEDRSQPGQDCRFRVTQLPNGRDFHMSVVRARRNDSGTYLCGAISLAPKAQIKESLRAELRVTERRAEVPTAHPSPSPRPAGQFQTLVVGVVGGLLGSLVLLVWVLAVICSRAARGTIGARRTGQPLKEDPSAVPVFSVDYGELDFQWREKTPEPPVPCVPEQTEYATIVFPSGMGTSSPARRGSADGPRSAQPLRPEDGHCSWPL
Procedure: HEK293 cells overexpressing the human PD-1 were cultured in a DMEM medium containing 10% FBS in a CO₂ incubator (37° C., 5% CO₂). The cells were harvested and washed once with test buffer. Cells were counted and detected for viability. […] The cells were washed with washing buffer, and 100 μL of PE-anti-human IgG was added in accordance with the instruction and incubated in dark at 4° C. for 1 hr. The cells were washed three times with washing buffer, and individual samples were re-suspended in 200 μL of PBS and detected by flow cytometer. The data were analyzed using FCS Express 6 Plus and GraphPad Prism 5 software.

[4] = target: T2, recombinant human PD-1-his protein; assay: ELISA (first round of humanization); PD-1-his coated 2 µg/mL, anti-human IgG Fc-HRP
Procedure: 96-well ELISA plates were coated with 2 μg/mL of recombinant human PD-1-his antigen protein at 30 μL/well at 4° C. overnight. The plates were washed three times with PBST. 5% PBS-Milk was added and incubated at room temperature for 2 h. The plates were washed three times with PBST. All the nanobody-Fc fusion proteins were subject to 3-fold gradient dilutions with an initial concentration of 10 μg/mL, added into each well at 30 μL/well, and incubated at room temperature for 1 hr. The plates were washed three times with PBST. The secondary antibody Goat-Anti-Human-IgG-Fc-HRP (purchased from Sigma) was diluted at 1:8000, added into each well at 30 μL/well, and incubated at room temperature for 50 min. The plates were washed three times with PBST. TMB (purchased from SurModics) was added into each well at 30 μL/well and developed at room temperature in dark for 1 min to 5 min. 2 M hydrochloric acid was added at 30 μL/well to stop the reaction. The OD450 absorbance value was read by a microplate reader.

[5] = target: T4, recombinant human PD-1 (C-Fc & C-Avi & C-6×His) (human, UniProt Q15116 25-167); assay: competitive ELISA; PD-L1 (C-Fc) coated, 0.5 µg/mL PD-1 (C-Fc & C-Avi & C-6×His), streptavidin-HRP
T4 construct: not shown: C-terminal Fc, Avi tag and 6×His tag
T4 sequence (Q15116 25-167 limits assumed): as the sequence (Q15116 25-167 limits assumed) above
Procedure: The plates were blocked with 1% casein. […] The plates were washed with PBST between incubations. Horseradish peroxidase-labelled streptavidin (1:10000) was used for detection, and Graphpad Prism software was used to fit the curve and calculate the EC₅₀ value, with the results shown in Table 3.

[6] = target: T3, human PD-1 on HEK293 cells …; assay: competitive flow cytometry on HEK293 cells overexpressing human PD-1; 1.0 µg/mL biotinylated human PD-L1 as competitor, PE-SA
Procedure: The cells were harvested and washed once with test buffer. […] The data were analyzed using FCS Express 6 Plus and GraphPad Prism 5 software.

[7] = target: T5, recombinant human PD-1 protein (human, UniProt Q15116 25-167, limits assumed); assay: competitive ELISA; PD-1 coated 2 µg/mL, 4 µg/mL PD-L1-Fc as competitor, anti-human IgG-HRP
T5 construct: also called recombinant human PD-1 antigen; human recombinant PD-1
T5 sequence (Q15116 25-167 limits assumed): as above
Procedure: Ninety-six-well plates were coated with recombinant human PD-1 antigen (2 μg/mL) at 4° C. overnight. The plates were blocked with 1% casein. […] The plates were washed with PBST between incubations.

| Kd [2] [nM] | koff [2] [s⁻¹] | kon [2] [M⁻¹ s⁻¹] | EC50 [3] [µg/mL] | EC50 [4] [µg/mL] | EC50 [5] [µg/mL] | EC50 [6] [µg/mL] | EC50 [7] [µg/mL] | Binder | binding result [1] |
| --- | --- | --- | --- | --- | --- | --- | --- | --- | --- |
| 0.0425 | 1.95e-05 | 460000 | 0.245 | 0.14 | 0.499 | 0.549 |  | MHPD1-A Fc (Fc fusion, C-terminal of VHH directly connected to the N-terminal of the human Fc hinge region; also called nanobody-Fc fusion protein; fusion protein; not shown: human Fc fragment with hinge) QVQLVESGGGSVQVGGSLTLSCAASGSDPSIYAMGWFRQAPGKEHEFVAGIGWSAATTYYADSVKGRFGISRDNTKNTVALLMNSLKPEDTAIYYCAADLDHSGFDYWGQGTQVTVSS | no binding (tested: 5 µg/mL and 1.67 µg/mL) |
|  |  |  |  |  |  |  | 1.71 | MHPD1-A (VHH, tag not described; also called VHH; single-domain antibody MHPD1-A) VHH: QVQLVESGGGSVQVGGSLTLSCAASGSDPSIYAMGWFRQAPGKEHEFVAGIGWSAATTYYADSVKGRFGISRDNTKNTVALLMNSLKPEDTAIYYCAADLDHSGFDYWGQGTQVTVSS |  |
